Source: paper PMC10769282

Molecular target: SARS-CoV-2 Spike, BA.1 variant of concern, 21-amino-acid truncated form (SARS-CoV-2 (BA.1)) (UniProt P0DTC2)

Point of comparison: SA58 VH T53L A61S, VL N95V (antibody), IC50, neutralisation of BA.1 Spike pseudovirus 11 µg/mL. Against it:
- SA58 VL S54T (antibody) — within 1.5-fold, 12 µg/mL
- SA58 VH T53L A61S (antibody) — within 1.5-fold, 12 µg/mL
